Experimental data published in ChEMBL document CHEMBL1130474, “Conformationally restricted arginine analogues as inhibitors of human nitric oxide synthase” (Bioorg Med Chem Lett, 1997).

Columns and labels:
[1] = substrate: N=C(N)NCCC[C@H](N)C(=O)O
[2] = substrate: N=C(N)NCCC[C@H](N)C(=O)O; remark: listed apart in the source

Protein | Km [1] | Km [2]
Nitric oxide synthase 1 (Homo sapiens), P29475 (protein) MEDHMFGVQQIQPNVISVRLFKRKVGGLGFLVKERVSKPPVIISDLIRGGAAEQSGLIQAGDIILAVNGRPLVDLSYDSALEVLRGIASETHVVLILRGPEGFTTHLETTFTGDGTPKTIRVTQPLGPPTKAVDLSHQPPAGKEQPLAVDGASGPGNGPQHAYDDGQEAGSLPHANGLAPRPPGQDPAKKATRVSLQGRGENNELLKEIEPVLSLLTSGSRGVKGGAPAKAEMKDMGIQVDRDLDGKSHKPLPLGVENDRVFNDLWGKGNVPVVLNNPYSEKEQPPTSGKQSPTKNGSPSKCPRFLKVKNWETEVVLTDTLHLKSTLETGCTEYICMGSIMHPSQHARRPEDVRTKGQLFPLAKEFIDQYYSSIKRFGSKAHMERLEEVNKEIDTTSTYQLKDTELIYGAKHAWRNASRCVGRIQWSKLQVFDARDCTTAHGMFNYICNHVKYATNKGNLRSAITIFPQRTDGKHDFRVWNSQLIRYAGYKQPDGSTLGDPANVQFTEICIQQGWKPPRGRFDVLPLLLQANGNDPELFQIPPELVLEVPIRHPKFEWFKDLGLKWYGLPAVSNMLLEIGGLEFSACPFSGWYMGTEIGVRDYCDNSRYNILEEVAKKMNLDMRKTSSLWKDQALVEINIAVLYSFQSDKVTIVDHHSATESFIKHMENEYRCRGGCPADWVWIVPPMSGSITPVFHQEMLNYRLTPSFEYQPDPWNTHVWKGTNGTPTKRRAIGFKKLAEAVKFSAKLMGQAMAKRVKATILYATETGKSQAYAKTLCEIFKHAFDAKVMSMEEYDIVHLEHETLVLVVTSTFGNGDPPENGEKFGCALMEMRHPNSVQEERKSYKVRFNSVSSYSDSQKSSGDGPDLRDNFESAGPLANVRFSVFGLGSRAYPHFCAFGHAVDTLLEELGGERILKMREGDELCGQEEAFRTWAKKVFKAACDVFCVGDDVNIEKANNSLISNDRSWKRNKFRLTFVAEAPELTQGLSNVHKKRVSAARLLSRQNLQSPKSSRSTIFVRLHTNGSQELQYQPGDHLGVFPGNHEDLVNALIERLEDAPPVNQMVKVELLEERNTALGVISNWTDELRLPPCTIFQAFKYYLDITTPPTPLQLQQFASLATSEKEKQRLLVLSKGLQEYEEWKWGKNPTIVEVLEEFPSIQMPATLLLTQLSLLQPRYYSISSSPDMYPDEVHLTVAIVSYRTRDGEGPIHHGVCSSWLNRIQADELVPCFVRGAPSFHLPRNPQVPCILVGPGTGIAPFRSFWQQRQFDIQHKGMNPCPMVLVFGCRQSKIDHIYREETLQAKNKGVFRELYTAYSREPDKPKKYVQDILQEQLAESVYRALKEQGGHIYVCGDVTMAADVLKAIQRIMTQQGKLSAEDAGVFISRMRDDNRYHEDIFGVTLRTYEVTNRLRSESIAFIEESKKDTDEVFSS | 1.6 µM | –
Nitric oxide synthase 3 (Homo sapiens), P29474 (protein) MGNLKSVAQEPGPPCGLGLGLGLGLCGKQGPATPAPEPSRAPASLLPPAPEHSPPSSPLTQPPEGPKFPRVKNWEVGSITYDTLSAQAQQDGPCTPRRCLGSLVFPRKLQGRPSPGPPAPEQLLSQARDFINQYYSSIKRSGSQAHEQRLQEVEAEVAATGTYQLRESELVFGAKQAWRNAPRCVGRIQWGKLQVFDARDCRSAQEMFTYICNHIKYATNRGNLRSAITVFPQRCPGRGDFRIWNSQLVRYAGYRQQDGSVRGDPANVEITELCIQHGWTPGNGRFDVLPLLLQAPDDPPELFLLPPELVLEVPLEHPTLEWFAALGLRWYALPAVSNMLLEIGGLEFPAAPFSGWYMSTEIGTRNLCDPHRYNILEDVAVCMDLDTRTTSSLWKDKAAVEINVAVLHSYQLAKVTIVDHHAATASFMKHLENEQKARGGCPADWAWIVPPISGSLTPVFHQEMVNYFLSPAFRYQPDPWKGSAAKGTGITRKKTFKEVANAVKISASLMGTVMAKRVKATILYGSETGRAQSYAQQLGRLFRKAFDPRVLCMDEYDVVSLEHETLVLVVTSTFGNGDPPENGESFAAALMEMSGPYNSSPRPEQHKSYKIRFNSISCSDPLVSSWRRKRKESSNTDSAGALGTLRFCVFGLGSRAYPHFCAFARAVDTRLEELGGERLLQLGQGDELCGQEEAFRGWAQAAFQAACETFCVGEDAKAAARDIFSPKRSWKRQRYRLSAQAEGLQLLPGLIHVHRRKMFQATIRSVENLQSSKSTRATILVRLDTGGQEGLQYQPGDHIGVCPPNRPGLVEALLSRVEDPPAPTEPVAVEQLEKGSPGGPPPGWVRDPRLPPCTLRQALTFFLDITSPPSPQLLRLLSTLAEEPREQQELEALSQDPRRYEEWKWFRCPTLLEVLEQFPSVALPAPLLLTQLPLLQPRYYSVSSAPSTHPGEIHLTVAVLAYRTQDGLGPLHYGVCSTWLSQLKPGDPVPCFIRGAPSFRLPPDPSLPCILVGPGTGIAPFRGFWQERLHDIESKGLQPTPMTLVFGCRCSQLDHLYRDEVQNAQQRGVFGRVLTAFSREPDNPKTYVQDILRTELAAEVHRVLCLERGHMFVCGDVTMATNVLQTVQRILATEGDMELDEAGDVIGVLRDQQRYHEDIFGLTLRTQEVTSRIRTQSFSLQERQLRGAVPWAFDPPGSDTNSP | – | 0.9 µM
